Test results from article PMC11757143, “Generation and characterization of OX40-ligand fusion protein that agonizes OX40 on T-Lymphocytes” (Frontiers in Immunology, 2025).

What was measured:
Fc-scOX40L (mouse) = Fc-scOX40L (mouse) (UniProt P43488); assay: non-reducing SDS-PAGE and immunoblot; recombinant OX40L proteins in Laemmli sample buffer, non-heated/non-reducing, SDS-PAGE, immunoblot with anti-PA tag antibody; oligomers judged by molecular weight
scOX40L-Fc (mouse) = scOX40L-Fc (mouse) (UniProt P43488); assay: as above

Substance: Fc-scOX40L (from UniProt P43488 51-198; P43488 51-198; P43488 51-198) (Fc fusion)
- stoichiometry N (Fc-scOX40L (mouse)): 2

Substance: scOX40L-Fc (from UniProt P43488 51-198; P43488 51-198; P43488 51-198) (Fc fusion)
- stoichiometry N (scOX40L-Fc (mouse)): 2
